The text below walks through data of article PMC12203367, “Shikimate Kinase-Like 1 Participates in an Ancient and Conserved Role Contributing to Chloroplast Biogenesis in Land Plants” (Molecular Biology and Evolution, 2025).

Substrate in this data set: O=C(O)C1=C[C@@H](O)[C@@H](O)[C@H](O)C1
The data set is described as follows: purified protein. The format is biochemical, Marchantia polymorpha. The following applies: 2.5 mM ATP, 1 mM MgCl2, 50 mM Tris-HCl pH 7.5, 200 mM NaCl, 30 °C, shikimate 0-3 mM.

B1: MpSK (Δ113MpSK) (Marchantia polymorpha) (protein)
chain: QYSLELQEDEELLKKKAALVVQQLAGSCIFLVGMMGSGKTTVGKHVSEALGYYFFDSDKLVEESRGKTVAEMFRYGREEEFRNAESEVLEQLSSMVRLVVATGGGAVVRPENWSYLRHGITVWLDVPVDSLAERVVAVGCHSRPLLGVQAHDSAYKQALERLTHILQERADFYASADAVVSVEELARKRGQDINSITPTMIAVQVLEEISKMLERGDRDPSLQY
notes: N-terminal 113 residues (predicted chloroplast transit peptide) removed; cloned from Tak-2 cDNA; pET28a-MOD, C-terminal His6 cleaved by TEV; E. coli BL21-CodonPlus
For B1, the Km (in general, the substrate concentration at which the rate is half of its maximum) is given as 782.5 µM; the kcat (as a rule, the number of substrate molecules converted per active site and unit of time at saturation) was 1.0 s⁻¹.
